Data on 22 molecules can be found in PMC5702341, “Identification of Antibody and Small Molecule Antagonists of Ferroportin-Hepcidin Interaction” (Frontiers in Pharmacology, 2017).

Where a SMILES comes first, the peptide text is derived from it. Bridges are numbered along the chain shown (N, C = ends). Side-chain parts run from the residue outwards. The star is where a group is joined. X1 = Nc1ccc2c(c1)Oc1cc(N)ccc1C21OC(=O)c2cc(C(=O)*)ccc21; Ahx = NCCCCCC(=O)O

The target in assay [1] is human ferroportin with V5 tag, on doxycycline-induced T-REx/FPN-V5 cells (human) (UniProt Q9NP59).
Assay [2] has as its target endogenous human ferroportin on T47D cells (human (endogenous in T47D)) (UniProt Q9NP59).
Assay [3] concerns the target human ferroportin with V5 tag, on doxycycline-induced T-REx/FPN-V5 cells (human) (UniProt Q9NP59). This is another data set of the same source.
For assay [4] the target is unchanged. This is another data set of the same source.
Assay [5] addresses T1, ferroportin-hepcidin interaction (T-REx/FPN-V5 cells) (Homo sapiens, UniProt Q9NP59).
T1 sequence (Q9NP59 1-571): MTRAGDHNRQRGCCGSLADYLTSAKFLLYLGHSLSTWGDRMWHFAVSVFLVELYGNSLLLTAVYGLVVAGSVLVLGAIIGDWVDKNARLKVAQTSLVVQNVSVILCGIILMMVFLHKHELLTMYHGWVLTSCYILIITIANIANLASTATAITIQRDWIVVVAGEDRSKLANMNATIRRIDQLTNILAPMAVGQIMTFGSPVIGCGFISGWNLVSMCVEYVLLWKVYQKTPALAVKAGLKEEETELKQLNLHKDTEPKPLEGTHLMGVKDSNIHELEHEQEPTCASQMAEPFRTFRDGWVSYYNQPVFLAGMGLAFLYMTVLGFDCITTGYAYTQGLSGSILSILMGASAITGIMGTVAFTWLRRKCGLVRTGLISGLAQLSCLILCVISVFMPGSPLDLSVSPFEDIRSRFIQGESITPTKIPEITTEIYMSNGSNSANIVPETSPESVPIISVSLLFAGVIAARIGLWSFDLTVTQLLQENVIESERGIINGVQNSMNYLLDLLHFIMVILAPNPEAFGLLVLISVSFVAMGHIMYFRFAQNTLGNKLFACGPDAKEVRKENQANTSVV
T1 sequence (P81172 60-84 partner): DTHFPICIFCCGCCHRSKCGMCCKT
The assay can be described thus: RhoG-hepcidin reversibility (washout) assay. Type of assay: cell-based. The note with it: for IC50: cells treated 1 h, washed to remove unbound compound, then RhoG-hepcidin, N = 3, read-out: IC50 blocking RhoG-hepcidin binding/uptake after washout. The protocol:
T-REx™/FPN-V5 cells plated in 96-well Packard ViewPlates at 50,000 cells/well and induced overnight as described for the BLA screening assay. […] As a control, cells were treated identically except that compound was not removed before addition of RhoG-hepcidin. Cells were fixed with 4% formaldehyde (Thermo Fisher) and stained with Hoechst nuclear dye. RhoG-Hepc uptake per cell was measured by cellular imaging.
(§1) In an effort to identify small molecule inhibitors of hepcidin-induced FPN internalization, we ran a small molecule screen using the cell-based iron response reporter assay described above. […] Molecules that prevented intracellular iron accumulation were further tested in the RhoG-hepcidin uptake and FPN internalization assays.
(A) T-REx™/FPN-V5 cells were induced overnight and treated with small molecules for 1 h prior to addition of RhoG-hepc for 2 h. Cells were fixed/permeabilized and stained with Ab 38G6; blue = nuclei, green = RhoG-hepcidin, red = FPN. Scale bar = 20 μm.
Reactivity with cell-based, folded FPN was assessed by the hepcidin uptake assay (Figure 9C); reactivity with the linear peptide was assessed by mass spectrometry (Figure 10A).

Assay [6] concerns the target T1, ferroportin-hepcidin interaction (T-REx/FPN-V5 cells). Briefly: RhoG-hepcidin uptake assay. Type of assay: cell-based. The following applies: compound 1 h prior to 250 nM RhoG-hepcidin for 1 h; read-out: IC50 inhibition of RhoG-hepcidin uptake.
Description: as §1

The target in assay [7] is ferroportin (T-REx/FPN-V5 cells) (Homo sapiens, UniProt Q9NP59). Briefly: cell-based.
Description: Cells were plated in 96-well Poly-D-Lysine coated plates (BD) at 50,000 cells/well and induced overnight with 10 ng/ml doxycycline (Clontech). […] FPN staining was completed as described above except that the incubations were performed at room temperature. […] Nuclei were stained with Hoechst dye. Cell surface or total FPN or intracellular hepcidin was quantitated with cellular imaging. Uninduced (non-FPN-expressing) cells served as a negative control. Images were captured from Arrayscan™ VTI (Thermo Fisher) equipped with Zeiss microscope optics and Hamamatsu ORCA®-ER CCD camera. Images were captured with 10X or 20X objectives and analyzed with the Spot Detector bioapplication. A minimum of 300 cells per well were analyzed for each condition.
T-REx™/FPN-V5 were plated in 384-well Poly-D-Lysine coated plates (BD) at 15,000 cell/well and induced overnight as described for RhoG-hepcidin uptake assay. […] Plates were scanned on Thermo Fisher ArrayScan™ HCS Reader and analyzed with Spot Detector application. A minimum of 300 cells/well were analyzed.
Alanine mutant peptides were tested for activity in both BLA and ferroportin internalization assays.
Using these antibodies, it was possible to develop a quantitative cellular imaging assay that measured hepcidin-induced FPN internalization. […]
The test system of the next assay is FPN (T-REx/FPN-V5 cells). The assay can be described thus: RhoG-hepcidin binding and displacement at 0°C on FPN-expressing cells. Type of assay: cell-based, human. The note with it: 2 h on ice, then 10X unlabeled hepcidin for 2 h on ice. The protocol:
To verify this work, RhoG-hepcidin was incubated with either uninduced or induced cells at 0°C. Contrary to the previous report, RhoG-hepcidin bound to FPN at this low temperature. To assess the reversibility of hepcidin binding to FPN, we incubated FPN-expressing cells with RhoG-hepcidin at 0°C to prevent internalization; we then added excess unlabeled hepcidin to determine if the labeled hepcidin could be displaced. […] We confirmed that FPN was not internalized using antibody 45D8 (Figure 11A).
(A) T-REx™/FPN-V5 cells were allowed to equilibrate on ice for 15 min prior to addition of RhoG-hepcidin for 2 h on ice; 10X unlabeled hepcidin was added for 2 additional hours on ice. FPN was detected with Ab 45D8; scale bar = 20 μm. (B) Non-glycosylated FPN binds hepcidin and internalizes. T-REx™/FPN-V5 cells were treated ± 0.3 μg/ml tunicamycin (Tm) for 18 h, followed by treatment with 500 nM hepcidin (Hepc) for 5 h. Blot was probed with anti-V5 Ab for FPN detection and anti-cyclophilin as loading control. (C) Induced HEK-FPN-V5 cells were treated ± 0.25 μg/ml tunicamycin (Tm) for 18 h, followed by RhoG-hepcidin for 3 h; uptake was quantitated by cellular imaging (N = 4, mean ± sd).

For hepcidin T2A (peptide), in assay [1], the FPN internalization assay EC50 (surface FPN by cellular imaging, T-REx/FPN-V5 cells) amounted to 29 nM and the Iron response assay EC50 (β-lactamase reporter under the ferritin IRE, T-REx/FPN-V5/IRE-BLA cells) was determined as 29 nM.
With hepcidin H3A (peptide), in assay [1], the FPN internalization assay EC50 (surface FPN by cellular imaging, T-REx/FPN-V5 cells) was 308 nM and the Iron response assay EC50 (β-lactamase reporter under the ferritin IRE, T-REx/FPN-V5/IRE-BLA cells) worked out at 298 nM.
In assay [1], hepcidin G12A (peptide) displayed an FPN internalization assay EC50 (surface FPN by cellular imaging, T-REx/FPN-V5 cells) of 212 nM and an Iron response assay EC50 (β-lactamase reporter under the ferritin IRE, T-REx/FPN-V5/IRE-BLA cells) of 107 nM.
Taken in the same sequence, the figures for hepcidin K18A (peptide) were 12 nM and 13 nM.
In assay [1], “synthetic human hepcidin (wild type, unlabeled) (peptide)” gave an FPN internalization assay EC50 (surface FPN by cellular imaging, T-REx/FPN-V5 cells) of 51 nM and an Iron response assay EC50 (β-lactamase reporter under the ferritin IRE, T-REx/FPN-V5/IRE-BLA cells) of 63 nM. The same molecule registered an EC50 of hepcidin-induced FPN internalization, T47D cells, 6 h, surface FPN on live cells by cellular imaging with Ab 38C8 in assay [2] of 13 nM. Further, in assay [3], the EC50 of hepcidin-induced FPN internalization, T-REx/FPN-V5 cells, 6 h, surface FPN on live cells by cellular imaging with Ab 38C8 is 11 nM.
In assay [1], hepcidin H15A (peptide) gave an FPN internalization assay EC50 (surface FPN by cellular imaging, T-REx/FPN-V5 cells) of 10 nM and an Iron response assay EC50 (β-lactamase reporter under the ferritin IRE, T-REx/FPN-V5/IRE-BLA cells) of 12 nM.
For the molecule hepcidin R16A (peptide), in assay [1], the FPN internalization assay EC50 (surface FPN by cellular imaging, T-REx/FPN-V5 cells) turned out to be 56 nM and the Iron response assay EC50 (β-lactamase reporter under the ferritin IRE, T-REx/FPN-V5/IRE-BLA cells) is 57 nM.
For the molecule hepcidin M21A (peptide), in assay [1], the FPN internalization assay EC50 (surface FPN by cellular imaging, T-REx/FPN-V5 cells) was determined as 162 nM and the Iron response assay EC50 (β-lactamase reporter under the ferritin IRE, T-REx/FPN-V5/IRE-BLA cells) came out at 112 nM.
Taken in the same sequence, the figures for hepcidin T25A (peptide) were 39 nM and 53 nM.
On to hepcidin G20A (peptide), for which, in assay [1], the FPN internalization assay EC50 (surface FPN by cellular imaging, T-REx/FPN-V5 cells) turned out to be 309 nM and the Iron response assay EC50 (β-lactamase reporter under the ferritin IRE, T-REx/FPN-V5/IRE-BLA cells) was found to be 288 nM.
In assay [1], hepcidin I8A (peptide) gave an FPN internalization assay EC50 (surface FPN by cellular imaging, T-REx/FPN-V5 cells) of over 3600 nM and an Iron response assay EC50 (β-lactamase reporter under the ferritin IRE, T-REx/FPN-V5/IRE-BLA cells) of over 3600 nM.
In assay [1], hepcidin S17A (peptide) registered an FPN internalization assay EC50 (surface FPN by cellular imaging, T-REx/FPN-V5 cells) of 50 nM and an Iron response assay EC50 (β-lactamase reporter under the ferritin IRE, T-REx/FPN-V5/IRE-BLA cells) of 66 nM.
“[Lys17(N-epsilon-Rhodamine green amino hexanoyl)]hepcidin (peptide)” returned an EC50 of FPN internalization, T-REx/FPN-V5 cells, 3 h, cellular imaging with Ab 38C8 in assay [4] of 30 nM.
In the case of hepcidin P5A (peptide), in assay [1], the FPN internalization assay EC50 (surface FPN by cellular imaging, T-REx/FPN-V5 cells) was found to be 474 nM and the Iron response assay EC50 (β-lactamase reporter under the ferritin IRE, T-REx/FPN-V5/IRE-BLA cells) is 180 nM.
Consider `O=S(=O)(c1ccc(Cl)cc1)c1cnc2ccccc2n1` [Compound 1, 2-[(4-chlorophenyl)sulfonyl]quinoxaline], for which the inhibition at 100 µM in assay [5] (100 μM compound, 1 h, in cells, read-out: inhibition of hepcidin uptake) was 100%. The values for the IC50 in assay [5] and in assay [6] were 100 nM and 141 nM, respectively.
For hepcidin F9A (peptide), in assay [1], the FPN internalization assay EC50 (surface FPN by cellular imaging, T-REx/FPN-V5 cells) was determined as 250 nM and the Iron response assay EC50 (β-lactamase reporter under the ferritin IRE, T-REx/FPN-V5/IRE-BLA cells) was found to be 392 nM.
As to `NC(=O)CI` [iodoacetamide, reference compound], the “inhibition of hepcidin uptake” value in assay [5] (100 μM compound, 1 h, in cells) is listed as ~ 50%. In assay [5], the IC50 was determined as 86000 nM.
For the molecule hepcidin D1A (peptide), in assay [1], the FPN internalization assay EC50 (surface FPN by cellular imaging, T-REx/FPN-V5 cells) came to 185 nM and the Iron response assay EC50 (β-lactamase reporter under the ferritin IRE, T-REx/FPN-V5/IRE-BLA cells) was 144 nM.
Taken in the same sequence, the figures for hepcidin I6A (peptide) were 247 nM and 634 nM.
In assay [1], hepcidin F4A (peptide) returned an FPN internalization assay EC50 (surface FPN by cellular imaging, T-REx/FPN-V5 cells) of over 3600 nM and an Iron response assay EC50 (β-lactamase reporter under the ferritin IRE, T-REx/FPN-V5/IRE-BLA cells) of over 3600 nM.
In assay [7], `CC[C@H](C)[C@@H]1NC(=O)[C@@H](NC(=O)[C@@H](NC(=O)[C@@H]2CCCN2C(=O)[C@H](Cc2ccccc2)NC(=O)[C@H](Cc2c[nH]cn2)NC(=O)[C@@H](NC(=O)[C@@H](N)CC(=O)O)[C@@H](C)O)[C@@H](C)CC)CSSC[C@@H](C(=O)N[C@@H](CCCCN)C(=O)N[C@H](C(=O)O)[C@@H](C)O)NC(=O)[C@@H]2CSSC[C@@H]3NC(=O)[C@@H]4CSSC[C@H](NC(=O)[C@H](Cc5ccccc5)NC1=O)C(=O)N[C@@H](CSSC[C@H](NC(=O)[C@H](CCCCN)NC(=O)[C@H](CCCCNC(=O)CCCCCNC(=O)c1ccc5c(c1)C(=O)OC51c5ccc(N)cc5Oc5cc(N)ccc51)NC(=O)[C@H](CCCNC(=N)N)NC(=O)[C@H](Cc1c[nH]cn1)NC3=O)C(=O)NCC(=O)N[C@@H](CCSC)C(=O)N2)C(=O)NCC(=O)N4` [RhoG-hepcidin, [Lys17(N^ε-Rhodamine green amino hexanoyl)]hepcidin] (H-DTHFPICIFCCGCCHRK([Ahx-X1])KCGMCCKT-OH; disulfide 7-23, 10-13, 11-19, 14-22 (inferred); C-terminus assumed) showed an EC50 of about 30 nM. In the assay with FPN (T-REx/FPN-V5 cells), the “reversibility of binding to FPN” value is on record as “reversible”.
Take hepcidin K24A (peptide): in assay [1], the FPN internalization assay EC50 (surface FPN by cellular imaging, T-REx/FPN-V5 cells) stood at 267 nM and the Iron response assay EC50 (β-lactamase reporter under the ferritin IRE, T-REx/FPN-V5/IRE-BLA cells) came to 266 nM.
